Numbered stars: 1 amine (or outer) side, 2 acyl side, 3 side chain; on linkers, the order of the positions; unused ones are H or OH. Bridge positions count the residues as written; N and C are the ends. Square brackets hold non-standard residues; d marks the D form. Triazole bridges read from a SMILES are 1,4-linked. Ends that are not written are not given here. Peptide text beside a SMILES is read from it. * marks the point of attachment. DOTA = O=C(O)CN1CCN(CC(=O)O)CCN(CC(=O)*)CCN(CC(=O)O)CC1; Pteroyl = Nc1nc2ncc(CNc3ccc(C(=O)*)cc3)nc2c(=O)[nH]1; Butanoyl(4-(4-MePh)) = Cc1ccc(CCCC(=O)*)cc1; Lys(N3) = [N-]=[N+]=NCCCC[C@H](N)C(=O)O; γGlu = O=C(O)[C@H](CCC(=O)[*:2])N[*:1]; AEEEA = NCCOCCOCCOCC(=O)O; Pra = C#CC[C@H](N)C(=O)O; X2 = NOCC(=O)*
Experiments:
OVCAR3 FOLR1+ cells [1] = test: Flow cytometry binding to FOLR1 (+) cells; type: cell-based, human; details: OVCAR3 vs PC-3, flow cytometry
Procedure: Both the kyeet (SEQ ID NO:9) and hshta (SEQ ID NO:6)-derived biligands were tested by flow cytometry for binding to FOLR1 (+) and FOLR1 (−) cell lines (FIGS. 6 and 7). The human ovarian adenocarcinoma-derived cell line OVCAR3 has robust FOLR1 expression and was selected as the FOLR1 (+) cell line. The human prostate adenocarcinoma-derived cell line PC-3 was selected as a FOLR1 (−) cell line.
Competition at the cellular level was also probed.
Increasing the serum-bound fraction of the peptide may decrease first pass removal of the heterobiligand, and drive compound retention of tumor over kidney. Constructs bearing the known albumin binder 4-methylphenyl butyric acid (4-MPBA) were synthesized. These compounds were evaluated in vitro to verify binding fidelity to FOLR1. The modified heterobiligands were incubated at 400 nM with OVCAR3 and PC-3 cells for 20 minutes at 37° C. in complete media containing 20% FBS. They both bind to OVCAR3 FOLR1+ cells with similar binding affinities as the original heterobiligand studied (FIG. 14). […] Similar activity of these heterobiligands is anticipated in vivo.

OVCAR3 FOLR1+ cells [2] = test: Flow cytometry binding to FOLR1 (+) cells; type: cell-based, human; details: 40 nM of the test article
Plasma stability, human = details: pH 7.4, Plasma Stability (t 1/2), Hu, AO construct marked (FB)
Procedure: (§7) Plasma was thawed in a 37° C. water bath. Residual clots were removed via centrifugation at 4000 rpm for 5 minutes. The pH of the plasma was adjusted to 7.4 if required. Test articles were diluted to 100 μM by diluting a 1 mM working solution (in DMSO) with 45% methanol in water. To 98 μL of plasma was added 2 μL of the 100 μM solution, resulting in 2 μM final concentration of the test article. Samples were incubated at 37° C. in a water bath. At the indicated time points (0, 10, 30, 60, 120 minutes) 100 μL of 4% H3PO4 was added followed by 800 μL of stop solution (200 ng/mL tolbutamide and 200 ng/mL labetalol in 100% acetonitrile). The samples were centrifuged and the plasma protein-free supernatant (100 μL) was subjected to LC-MS/MS analysis.

human recombinant NEP = human recombinant NEP (Homo sapiens, UniProt P08473); type: biochemical
Chain of human recombinant NEP (P08473 whole entry): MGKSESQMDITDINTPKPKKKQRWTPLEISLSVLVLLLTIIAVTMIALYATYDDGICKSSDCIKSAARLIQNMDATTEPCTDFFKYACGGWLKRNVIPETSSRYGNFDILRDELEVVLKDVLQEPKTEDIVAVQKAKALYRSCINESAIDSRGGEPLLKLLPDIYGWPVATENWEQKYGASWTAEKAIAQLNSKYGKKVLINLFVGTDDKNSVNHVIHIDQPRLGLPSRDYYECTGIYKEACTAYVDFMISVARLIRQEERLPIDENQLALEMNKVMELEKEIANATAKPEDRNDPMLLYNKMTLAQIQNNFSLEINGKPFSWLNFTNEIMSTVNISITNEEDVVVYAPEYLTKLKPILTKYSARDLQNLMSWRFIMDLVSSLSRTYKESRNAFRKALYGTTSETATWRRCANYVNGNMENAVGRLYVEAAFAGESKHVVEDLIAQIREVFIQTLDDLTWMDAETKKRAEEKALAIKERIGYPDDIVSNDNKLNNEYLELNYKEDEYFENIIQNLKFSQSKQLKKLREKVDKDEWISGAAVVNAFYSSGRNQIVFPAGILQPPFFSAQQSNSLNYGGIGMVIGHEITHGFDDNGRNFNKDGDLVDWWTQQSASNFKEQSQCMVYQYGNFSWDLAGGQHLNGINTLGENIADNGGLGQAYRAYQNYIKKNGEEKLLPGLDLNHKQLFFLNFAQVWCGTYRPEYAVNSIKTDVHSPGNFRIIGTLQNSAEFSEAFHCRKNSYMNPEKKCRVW
Procedure: In order to test the susceptibility of GFK and MVK linkers to NEP-mediated cleavage, the peptide (Folate-hshta-Lys(MPBA)-Gly-Phe-Lys(DOTA) (SEQ ID NO:6)) was incubated with human recombinant NEP and analyzed the solution for the presence of cleaved adducts. MALDI was utilized to monitor the cleavage of a PCC heterobiligand that contains a NEP protease recognizable sequence (G-F-K). The PCC concentration was constant and the NEP concentration was titrated down from 10 nM to 1 nM, 0.1 nM, 0.01 nM, and no NEP. The NEP-mediated cleaved adduct was identified by mass. 10 μM PCC containing the GFK linker was combined with varying amounts of NEP. […] Below 0.1 nM no cleavage was observed. • Folate-hshta-Lys(MPBA)-Gly-Phe-Lys(DOTA) (SEQ ID NO:6) • Molecular weight 2231.42
The NEP-mediated cleavage was also monitored by HPLC. In agreement with the MALDI spectra, the HPLC chromatograms show depletion of the parent brush-border heterobiligand (retention time 17.1 minutes), dose-dependent on the amount of NEP spiked into the sample (10 nM, 1 nM, 0.1 nM, 0.01 nM, and no NEP). An appearance of a new peak (retention time 16.5 minutes) in concert with the depletion of the starting material is presumed to be the cleaved folate-containing peptide.
In order to test the specificity of NEP, a non-cleavable linker (PEG3) was also assayed.
To reduce the radioactive dose to the kidney, Indi ^177Lu-7327 was constructed to incorporate a GFK linker that is susceptible to cleavage by enzymes found predominately in the kidney's brush border. These enzymes cleave off the radionuclide-chelator complex, which is quickly eliminated by the kidney for excretion in the urine. The zinc metalloprotease neprilysin (NEP) is expressed with high abundance in the kidney. […] To confirm NEP-mediated cleavage of the GFK linker in Indi 7327, the peptide was incubated with recombinant human NEP at 37° C. for 1 h and analyzed by matrix-assisted laser desorption/ionization mass spectrometry (MALDI-MS) for the evolution of cleaved adducts (FIG. 42). […] The expected cleaved adduct (mass: 1283.16 m/z) appears in the samples containing 10, 1.0, and 0.1 nM NEP. […] Below 0.1 nM NEP, no cleavage was observed. In addition to confirming the selectivity of NEP for the GFK linker, it is also important to note that the remaining portions of the Indi 7327 were impervious to the enzyme.

Plasma stability, mouse = details: CD-1, mouse, pH 7.4, Plasma Stability (t 1/2), Mu, AO construct marked (FB)
Procedure: as §7

[3] = system: OVCAR3 (FOLR1+) tumor bearing NSG mice; test: in vivo; details: mouse
Procedure: (§1) Female, 7-week-old NSG mice were housed under pathogen-free conditions. Water and food were provided ad libitum. To create mice with FOLR1+ ovarian xenograft tumors, mice were injected subcutaneously with OVCAR3 cells (1×10^7 cells per mouse) resuspended in 50% Matrigel in PBS into the shoulder region. Tumor growth was monitored by caliper measurements. OVCAR3 is a human ovarian adenocarcinoma known to over-express FOLR1.
(§2) ^68Ga PET imaging was used to study in vivo biodistribution of heterobiligands in non-tumor bearing (healthy) mice and OVCAR3 tumor bearing mice. 100-200 μCi of [^68Ga]DOTA-labeled heterobiligand was administered intravenously (i.v.) via the tail vein of each mouse. Dynamic PET imaging was performed from 0-1 h, followed by acquisition of static PET images at 2 h and 4 h post-injection. CT scans were acquired for anatomical reference. Imaging was performed on an Inveon microPET/CT small animal scanner. The PET signal was quantitated by three-dimensional ROI analysis and represented as percent injected dose (% ID) vs. time ([…]) for major organs including tumor, liver, heart, lung, bladder, and kidney.
(§3) Evaluation of a folate-hshta (SEQ ID NO:6) Nterm heterobiligand bearing both an albumin binder and DOTA chelator in PET was a priority, given that DOTA can accommodate both ^68Ga for imaging and ^177Lu for radiotherapy. A 200 μCi dose of ^68Ga-labeled folate-hshta-PEG3-Lys(MPBA)-Lys(DOTA) (SEQ ID NO:6) (compound #2809) was injected i.v. via tail vein in an NSG mouse bearing s.c. human OVCAR3 (FOLR1+) tumor. ^68Ga PET/CT imaging scans were performed at 0-1 h (dynamic), 2 h (static), and 4 h (static). […] The time-course biodistribution of ^68Ga-labeled folate-hshta-PEG3-Lys(MPBA)-Lys(DOTA) (SEQ ID NO:6) (compound #2809) was calculated to quantify the uptake in major organs including the tumor (FIG. 17). […] Larger tumors (490 mm^3) were also evaluated with the ^68Ga-chelated PET probe.
(§4) Images were captured for compound #1307 at the time points 5 min, 10 min, 15 min, 30 min, 1 h, 2 h, and 4 h. PET/CT images were taken following the injection of 4 female NSG mice with ^68Ga-chelated compound #2809. […] Images for mouse 4 are shown in FIG. 23 (Compounds #1307 and #2809) and FIG. 24 (Compound #1307).
(§5) Biodistribution was initially evaluated by PET imaging, as the time frame for a significant portion of clearance is roughly similar to the time frame of PET imaging experiments. Indi ^68Ga-7327 was injected via the tail vein into OVCAR3 (FOLR+) tumor implanted female NSG mice once the tumor size reached 200 mm^3, and microPET/CT scans were acquired at 5 min, 10 min, 15 min, 30 min, 1 h, 2 h, and 4 h post-injection. PET images were corrected for CT-based photon attenuation, detector normalization and radioisotope decay and converted to units of percent injected dose per cc (% ID/cc).

in vivo = details: female, NSG, mouse, iv, total radioactivity
Procedure: as §1, §2, §3, §4, §5

human serum albumin = human serum albumin (Homo sapiens, UniProt P02768); details: read-out: affinity for human serum albumin; cited from earlier work
OVCAR3 cells = test: Cell internalization assay (acid wash, flow cytometry); type: cell-based, human; details: OVCAR3 cell line
Procedure: FIG. 10 is a diagram of an assay for assessing cell internalization FOLR1 heterobiligands.
The folate-hshta (SEQ ID NO:6) Nterm heterobiligand was also evaluated in cell penetration imaging assays (FIG. 10). OVCAR3 and PC-3 cells were incubated with the test article at 37° C. for 1 hour. Flow cytometry analysis of the resulting treated cells indicated strong binding to FOLR1 (+) cells. To understand the proportion bound to the surface but not internalized, the cells were briefly washed with acid to liberate the non-internalized peptide.
(§6) Nonclinical studies were first conducted with Folate-hshta-PEG10-PEG10-K(Biotin), where Folate-hshta is the targeting heterobiligand, PEG10 is a deca(ethylene glycol) linker, and K(Biotin) is the detection label. […] Cross reactivity with the murine folate receptor was also observed. […] In the merged image, purple puncta were observed indicating co-localization of internalized heterobiligand with early endosomes (Rab5a+ vesicles) in OVCAR3 cells.

OVCAR3 (FOLR+) cells = test: Fluorescence microscopy / live cell imaging of dye-labeled heterobiligand; type: cell-based, human; details: DyLight 650 label, OVCAR3 vs PC3
From the text: To further understand intracellular trafficking of the Nterm heterobiligand, these dye-labeled compounds were imaged by fluorescence microscopy. The cells were counterstained with BioTracker 490, which stains membranes, and Rab5a+, an endosomal stain. […] Low levels of DyLight650 was detected within PC-3 (FOLR1−) cells. Taken together, internalization of the heterobiligand appears to be receptor driven and selective for FOLR1 (+) cells.
as §6

In the case of `C[C@H](O)[C@H]1NC(=O)[C@@H](CCC(=O)O)NC(=O)[C@@H](CCC(=O)O)NC(=O)[C@@H](Cc2ccc(O)cc2)NC(=O)[C@@H](CCCCN)NC(=O)[C@@H](NC(=O)[C@H](Cc2cn(CCOCCOCCOCCNC(=O)CC[C@H](NC(=O)c3ccc(NCc4cnc5nc(N)[nH]c(=O)c5n4)cc3)C(=O)O)nn2)NC(=O)CCOCCOCCOCCOCCOCCOCCOCCOCCOCCOCCNC(=O)CCOCCOCCOCCOCCOCCOCCOCCOCCOCCOCCNC(=O)CCCC[C@@H]2SC[C@@H]3NC(=O)N[C@@H]32)Cc2cn(nn2)CCCC[C@@H](C(N)=O)NC1=O` [folate-kyeet heterobiligand], the “selectivity for FOLR1 (+) cells over FOLR1 (−) cells” value (OVCAR3 FOLR1+ cells [1]) is reported as “high selectivity for FOLR1 (+) cells” and the “selectivity for FOLR1 (+) cells” value (OVCAR3 FOLR1+ cells [2]) is reported as “Virtually complete selectivity”.
With `C[C@H](O)[C@H]1NC(=O)[C@@H](Cc2cnc[nH]2)NC(=O)[C@@H](CO)NC(=O)[C@@H](Cc2cnc[nH]2)NC(=O)[C@@H](NC(=O)CC[C@H](NC(=O)c2ccc(NCc3cnc4nc(N)[nH]c(=O)c4n3)cc2)C(=O)O)Cc2cn(nn2)CCCC[C@@H](C(=O)NCC(=O)N[C@@H](Cc2ccccc2)C(=O)N[C@@H](CCCCNC(=O)CON)C(=O)O)NC(=O)[C@@H](C)NC1=O` [compound 3303, Fol-hshta-Gly-Phe-Lys(AO)] ({Pteroyl-γGlu}-[Pra][dH][dS][dH][dT][dA][Lys(N3)]GFK(X2)-OH; triazole 1-7) the half-life at 2 μM (Plasma stability, human) was greater than 116 h, the “in vitro Assay Data (NEP assay)” value (human recombinant NEP) was “Cleavage of -G-F-K-” and the half-life at 2 μM (Plasma stability, mouse) was greater than 116 h.
For `C[C@H](O)[C@H]1NC(=O)[C@@H](Cc2cnc[nH]2)NC(=O)[C@@H](CO)NC(=O)[C@@H](Cc2cnc[nH]2)NC(=O)[C@@H](NC(=O)CC[C@H](NC(=O)c2ccc(NCc3cnc4nc(N)[nH]c(=O)c4n3)cc2)C(=O)O)Cc2cn(nn2)CCCC[C@@H](C(=O)NCC(=O)N[C@@H](Cc2ccccc2)C(=O)N[C@@H](CCCCNC(=O)CN2CCN(CC(=O)O)CCN(CC(=O)O)CCN(CC(=O)O)CC2)C(=O)O)NC(=O)[C@@H](C)NC1=O` [Indi ^68Ga-7327, metal not drawn] ({Pteroyl-γGlu}-[Pra][dH][dS][dH][dT][dA][Lys(N3)]GFK(DOTA)-OH; triazole 1-7), the kidney uptake [3] was “significant reduction in kidney uptake” and the tissue uptake per volume at 4 h (in vivo; accumulation in the tumor) was 1.55 %ID/mL.
In the case of “GI48-GA: albumin-binding domain, fragment of protein G from Streptococcus strain GI48 (SEQ ID NO:33) (LAEAKVLANRELDKYGVSDYYKNLINNAKTVEGVKALIDEILAA)”, the Kd (human serum albumin) is listed as 1 nM.
For `Cc1ccc(CCCC(=O)NCCCC[C@H](NC(=O)COCCOCCOCCNC(=O)[C@@H]2CCCCn3cc(nn3)C[C@H](NC(=O)CC[C@H](NC(=O)c3ccc(NCc4cnc5nc(N)[nH]c(=O)c5n4)cc3)C(=O)O)C(=O)N[C@H](Cc3c[nH]cn3)C(=O)N[C@H](CO)C(=O)N[C@H](Cc3c[nH]cn3)C(=O)N[C@H]([C@H](C)O)C(=O)N[C@H](C)C(=O)N2)C(=O)N[C@@H](CCCCNC(=O)CN2CCN(CC(=O)O)CCN(CC(=O)O)CCN(CC(=O)O)CC2)C(N)=O)cc1` [^68Ga-chelated compound #2809, metal not drawn] ({Pteroyl-γGlu}-[Pra][dH][dS][dH][dT][dA][Lys(N3)][AEEEA]K(Butanoyl(4-(4-MePh)))K(DOTA)-NH2; triazole 1-7), the tissue uptake per volume at 4 h (in vivo; 200 uCi, dose accumulation in the tumor) was roughly 1.4 %ID/mL.
For “heterobiligand labeled with DyLight 650: folate-hshta Nterm heterobiligand labeled with the dye DyLight 650 ([dH][dS][dH][dT][dA]; not fully specified (N-terminus); printed as hshta; also: labeled with DyLight 650, place not given here, heterobiligand)”, the “internalized fraction in acid wash (pH 3.0) assay” value (OVCAR3 cells) was “high percentage”, the “internalization / intracellular localization” value (OVCAR3 (FOLR+) cells) was “internalization with clear preference for early endosomes” and the “internalization / intracellular localization” value (OVCAR3 (FOLR+) cells; listed as DyLight650-labeled peptide-folate heterobiligand) was “Selective internalization into OVCAR3 (FOLR+) cells”.
